# Test results taken from patent US20220381793A1, “COMPOSITIONS AND METHODS FOR IDENTIFYING MHC-II BINDING PEPTIDES” (priority 2021, published 2022).
# How the values were obtained:
# [1] = molecular target: T1, “empty” DR4 (DRA*01:01/DRB1*04:01) on yeast (Homo sapiens, UniProt P01903+P01911); assay: RIPPA competition assay, yeast displaying “empty” DR4, SARS-CoV-2 S peptides; assay type: binding; conditions: 200 μM competitor vs 20 μM Bio-HA306-318, pH 5.0, 30° C., 20 hours
# T1 construct: the α chain ectodomain, with or without the Jun motif, was designed to be secreted from yeast; the DR4 β chain ectodomain, with or without the Fos motif, was engineered to the upstream of yeast AGA2 gene; Syn-pre-pro leader (secretion leader) (N); expressed in transfected cells; host or cells: Saccharomyces cerevisiae EBY100, surface display via Aga1p/Aga2p
# [2] = molecular target: T2, “empty” DQ6 (DQA1*01:02/DQB1*06:02) on yeast (Homo sapiens, UniProt P01909+P01920); assay: RIPPA competition assay, yeast displaying “empty” DQ6, HCRT 15-mer peptides; assay type: binding; conditions: for DQ6 binding (in words): method not given, possible false positives
# T2 construct: A PCR fragment carrying the extracellular domain of HLA-DQA1*0102 with C-terminal Fos was cloned into ptDR1; A second PCR fragment carrying the extracellular domain of HLA-DQB1*0602 with C-terminal Jun was cloned into pDQ6α; Syn-pre-pro leader (secretion leader) (N); expressed in transfected cells; host or cells: Saccharomyces cerevisiae EBY100, surface display via Aga1p/Aga2p
# Procedure: FIGS. 4A-4C. RIPPA identified all DQ6 binders from HCRT. FIG. 4A. Yeast expressing “empty” DQ6 was incubated with 20 μM HCRT1-13-Bio and 200 μM of the indicated non-biotinylated HCRT 15-mer peptide at pH 5.0, 30° C. for 20 hours and analyzed by flow cytometry. % Competition=100%−% binding (% binding as calculated in FIG. 3E). Error bars represent SEM from three independent experiments. Bolded letters denote previously identified 9-aa DQ6-binding registers^4, 5, 42: […], SSGAAAQPL, NHAAGILTL and NHAAGILTM, respectively. HCRT49-63 or HCRT81-95 covers <8 aa of the previously determined registers. Binding ranks for each HCRT peptide predicted by NetMHCIIpan-4.0 (trained on both elution and binding data) are shown as 100-% rank to the left. FIGS. 4B-4C. Correlation analysis for binding data acquired using “empty” DQ6 on yeast versus soluble CLIP/DQ6 protein (FIG. 4B) or versus NetMHCIIpan-4.0 prediction (FIG. 4C). Arrows indicate peptides that show binding in one method but not the other in the comparison. Open circles in FIG. 4B match open bars in FIG. 4A, indicating ligands identified by both empirical methods.
# 6×10^5 galactose-induced yeast were incubated at pH 5.0, 30° C. for 20 hours with 20 μM biotinylated indicator peptides in the presence of various concentrations of a competitor peptide to determine an appropriate competitor concentration for a competition assay. […] After incubation, the yeast cells were washed with PBS+1% BSA, stained with streptavidin-AF647 and analyzed by flow cytometry as described above. […]
# Sufficient amounts of galactose-induced yeast cells displaying “empty” DQ6 were collected by centrifugation at 2,500 g for 3 min and resuspended in the 40 mM citrate buffer (pH 5.0) at a density of 1.5×10^4 cells μl^−1. […] DQ6-associated HCRT1-13-Bio was labeled with streptavidin-AF647 and analyzed by flow cytometry as described above. The binding of a competitor peptide to “empty” DQ6 on yeast was quantified as % competition=100%−[(MFIwith competitor−background)/(MFIwithout competitor−background)]×100%.
# T1 sequence (P01903 with tags, fused parts or gaps): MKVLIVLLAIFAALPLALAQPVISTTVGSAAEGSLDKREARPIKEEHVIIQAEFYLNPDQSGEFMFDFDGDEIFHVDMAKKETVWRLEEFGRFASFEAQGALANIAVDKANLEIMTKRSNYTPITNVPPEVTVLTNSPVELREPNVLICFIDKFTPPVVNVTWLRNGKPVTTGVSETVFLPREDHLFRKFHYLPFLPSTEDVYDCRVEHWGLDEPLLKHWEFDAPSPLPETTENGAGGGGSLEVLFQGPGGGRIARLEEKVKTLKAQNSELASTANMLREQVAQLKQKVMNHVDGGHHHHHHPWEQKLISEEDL
# T1 sequence (P01911 with tags, fused parts or gaps with the stated changes): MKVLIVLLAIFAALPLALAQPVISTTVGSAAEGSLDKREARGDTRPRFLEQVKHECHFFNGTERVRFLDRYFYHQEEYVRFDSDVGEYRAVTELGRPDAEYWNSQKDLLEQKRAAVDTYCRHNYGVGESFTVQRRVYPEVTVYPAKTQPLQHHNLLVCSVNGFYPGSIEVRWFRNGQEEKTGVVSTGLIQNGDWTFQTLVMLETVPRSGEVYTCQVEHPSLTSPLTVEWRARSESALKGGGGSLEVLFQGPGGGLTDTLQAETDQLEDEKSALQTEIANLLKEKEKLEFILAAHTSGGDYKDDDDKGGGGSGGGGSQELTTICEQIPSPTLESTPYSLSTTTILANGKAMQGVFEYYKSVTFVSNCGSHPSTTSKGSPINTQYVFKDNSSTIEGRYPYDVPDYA
# T1 sequence (P32323 25-725 partner): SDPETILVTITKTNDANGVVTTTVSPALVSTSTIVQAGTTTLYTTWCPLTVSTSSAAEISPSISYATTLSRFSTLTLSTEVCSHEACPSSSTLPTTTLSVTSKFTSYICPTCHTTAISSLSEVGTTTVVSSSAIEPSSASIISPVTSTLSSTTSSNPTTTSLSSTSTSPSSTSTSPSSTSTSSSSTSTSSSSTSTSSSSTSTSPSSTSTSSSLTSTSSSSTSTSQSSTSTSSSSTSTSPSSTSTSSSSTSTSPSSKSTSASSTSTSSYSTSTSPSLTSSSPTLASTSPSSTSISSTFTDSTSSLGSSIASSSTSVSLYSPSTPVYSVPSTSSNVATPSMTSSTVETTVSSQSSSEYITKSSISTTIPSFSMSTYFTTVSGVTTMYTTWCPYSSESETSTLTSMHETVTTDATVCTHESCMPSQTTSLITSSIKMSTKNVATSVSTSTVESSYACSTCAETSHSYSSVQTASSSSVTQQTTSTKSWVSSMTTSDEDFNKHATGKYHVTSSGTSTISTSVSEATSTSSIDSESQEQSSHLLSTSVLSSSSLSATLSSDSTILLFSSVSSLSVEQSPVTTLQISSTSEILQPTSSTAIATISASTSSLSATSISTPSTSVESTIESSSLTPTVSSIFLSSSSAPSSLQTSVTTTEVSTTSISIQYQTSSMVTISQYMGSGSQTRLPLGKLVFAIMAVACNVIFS
# T2 sequence (P01909 with tags, fused parts or gaps with the stated changes): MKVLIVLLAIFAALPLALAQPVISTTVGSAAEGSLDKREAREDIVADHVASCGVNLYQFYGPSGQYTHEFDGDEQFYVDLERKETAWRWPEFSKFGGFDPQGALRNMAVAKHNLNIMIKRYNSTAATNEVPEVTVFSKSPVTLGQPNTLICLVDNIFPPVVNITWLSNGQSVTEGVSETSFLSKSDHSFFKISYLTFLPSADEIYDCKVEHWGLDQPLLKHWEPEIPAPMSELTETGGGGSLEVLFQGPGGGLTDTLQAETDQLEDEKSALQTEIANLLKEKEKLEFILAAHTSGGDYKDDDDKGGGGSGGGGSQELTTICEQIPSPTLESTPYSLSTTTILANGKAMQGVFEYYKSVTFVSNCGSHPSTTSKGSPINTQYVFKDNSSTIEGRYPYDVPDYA
# T2 sequence (P01920 with tags, fused parts or gaps with the stated changes): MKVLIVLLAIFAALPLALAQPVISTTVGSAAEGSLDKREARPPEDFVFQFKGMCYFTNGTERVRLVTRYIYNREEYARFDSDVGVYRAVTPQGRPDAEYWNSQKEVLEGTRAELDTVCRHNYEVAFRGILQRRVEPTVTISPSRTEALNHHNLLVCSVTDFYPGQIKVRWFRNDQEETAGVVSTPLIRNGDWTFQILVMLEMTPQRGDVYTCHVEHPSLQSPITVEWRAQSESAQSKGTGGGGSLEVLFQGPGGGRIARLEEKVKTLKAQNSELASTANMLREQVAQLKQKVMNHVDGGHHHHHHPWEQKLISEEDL
# T2 sequence (P32323 25-725 partner): as the sequence (P32323 25-725 partner) above
Substance,% competition [1] [%],DQ6 binding (in words) [2],further results
5862-888: DR4 ligand peptide from the SARS-CoV-2 S protein (label probably misprinted) (PPLLTDEMIAQYTSALL),~75,–,–
"HCRT49-63: 15-mer overlapping peptide derived from prepro-HCRT (hypocretin precursor) (LYELLHGAGNHAAGI; UniProt O43612 49-63, looked up, fragment)",–,bound DQ6,–
"HCRT81-95: 15-mer overlapping peptide derived from prepro-HCRT (hypocretin precursor) (QRLLQASGNHAAGIL; UniProt O43612 81-95, looked up, fragment)",–,bound DQ6,–
HCRT89-103: 15-mer overlapping peptide derived from prepro-HCRT (hypocretin precursor) (NHAAGILTMGRRAGA),–,–,"% competition ([2]; 200 μM competitor vs 20 μM HCRT1-13-Bio, pH 5.0, 30° C., 20 hours): > 75%"
S764-780: 17-mer overlapping peptide derived from the SARS-CoV-2 S protein (NRALTGIAVEQDKNTQE),< 50,–,–
S1058-1074: 17-mer overlapping peptide derived from the SARS-CoV-2 S protein (HGVVFLHVTYVPAQEKN),~75,–,–
